Measured values published in patent US9458189B2, “Ligation of stapled polypeptides” (President and Fellows of Harvard College, priority 2008, dated 2016).
Primed or numbered codes have the meaning given here. No end group written: not given here. *: point of attachment. FITC = O=C1OC2(c3ccc(O)cc3Oc3cc(O)ccc32)c2ccc(NC(=S)*)cc21; PEG3′ = not defined here

Experiment: Circular dichroism of Max basic region peptides
Format: physicochemical
Conditions: circular dichroism wavelength scans; 100 uM peptide in water
Method: Each of the synthesized peptides were purified by HPLC and biochemically characterized. Each peptide was diluted in water to a final concentration of 100 uM using the extinction coefficient of FITC at 495 nm in 50 mM NaH2PO4, pH 8.0. […] One peptide, i, i+4 version 1, was chosen to be synthesized so as to contain a C-terminal thioester. The peptide was synthesized using t-Boc chemistry on 3-S-trityl-mercaptopropionyl resin. The peptide was purified by HPLC and the desired product was confirmed by LC/MS analysis.

Which “CD profile (secondary structure in solution)” value does the source give for “unmodified basic region peptide: unmodified DNA binding basic region of Max (RAHHNALERKRR, SEQ ID NO: 2) with N-terminal PEG-3 linker and FITC ({FITC-PEG3′}-RAHHNALERKRR)” here?
The value was “disordered in solution”.
